6 molecules from patent US20190077860A1 (EISAI R AND D MANAGEMENT, published 2019) can be followed below.

The target of assay [1] is T1, human EphA4 extracellular region-SEAP-His protein (human, UniProt P54764 20-547).
T1 construct: also called hEphA4-SEAP-His
Briefly: ELISA. In general terms: In an ELISA, binding on a coated surface is turned into a signal by an enzyme label.

The target of assay [2] is T2, human EphB1 extracellular region-SEAP-His protein (human, UniProt P54762 18-540).
T2 construct: extracellular domain; also called hEphB1-SEAP-His
T2 sequence (looked up): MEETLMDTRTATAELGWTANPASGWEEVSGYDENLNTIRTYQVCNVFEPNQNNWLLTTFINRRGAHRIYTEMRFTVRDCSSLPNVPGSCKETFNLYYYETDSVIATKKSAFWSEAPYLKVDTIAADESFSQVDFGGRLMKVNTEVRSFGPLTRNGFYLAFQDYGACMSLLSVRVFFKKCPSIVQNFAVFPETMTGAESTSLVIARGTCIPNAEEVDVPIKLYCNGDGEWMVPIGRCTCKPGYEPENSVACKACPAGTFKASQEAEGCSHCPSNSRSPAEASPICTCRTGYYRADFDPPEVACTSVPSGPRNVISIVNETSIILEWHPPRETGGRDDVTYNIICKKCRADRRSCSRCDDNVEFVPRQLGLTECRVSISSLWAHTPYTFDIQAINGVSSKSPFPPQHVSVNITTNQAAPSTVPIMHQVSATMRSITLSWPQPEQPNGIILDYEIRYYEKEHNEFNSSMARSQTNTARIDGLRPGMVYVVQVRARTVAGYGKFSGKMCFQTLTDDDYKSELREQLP
As to the kind of experiment: ELISA.

The target of assay [3] is T1, human EphA4 extracellular …. As to the kind of experiment: competition ELISA, competitor human Ephrin A5-Fc. The method, boiled down:
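Ligand binding to captured receptor measured as A450 after HRP-streptavidin/TMBZ development and acid stop. Receptor fusion (10 nM final) was immobilised via anti-alkaline phosphatase antibody; biotinylated Ephrin A5-Fc (0.7 nM final) added together with antibody titrations from 0 to 3000 nM, 1 h, room temperature.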

Assay [4] has the same target. Briefly: SPR, Ab captured. In short, it runs like this:
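Affinity (KD=kd/ka) obtained by fitting SPR curves to a 1:1 model. Analyte was human EphA4 extracellular region-SEAP-His, injected sequentially from 0.6 to 50 nM in HBS-EP (120 s on, 900 s off), onto humanized antibodies on protein A or antibody A on anti-mouse IgG1 surfaces, capture level about 30–60 RU.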
Background: SPR reads the build-up and loss of mass on a sensor chip optically.

T1 sequence (P54764 20-547): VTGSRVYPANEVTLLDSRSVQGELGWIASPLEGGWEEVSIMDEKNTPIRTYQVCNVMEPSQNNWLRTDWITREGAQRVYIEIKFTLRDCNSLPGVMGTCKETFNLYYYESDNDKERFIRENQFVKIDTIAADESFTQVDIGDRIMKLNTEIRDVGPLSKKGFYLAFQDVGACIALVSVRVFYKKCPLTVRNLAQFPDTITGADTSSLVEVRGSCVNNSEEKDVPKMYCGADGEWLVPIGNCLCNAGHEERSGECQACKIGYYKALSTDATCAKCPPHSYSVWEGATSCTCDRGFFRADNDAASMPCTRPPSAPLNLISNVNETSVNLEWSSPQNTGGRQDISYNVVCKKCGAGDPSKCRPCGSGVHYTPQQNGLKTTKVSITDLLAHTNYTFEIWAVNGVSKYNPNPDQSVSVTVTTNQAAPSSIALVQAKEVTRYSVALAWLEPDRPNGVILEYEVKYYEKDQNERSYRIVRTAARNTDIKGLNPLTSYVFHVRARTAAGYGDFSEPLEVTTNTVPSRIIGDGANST

B1: humanized antibody No. 134 (antibody, human IgG2)
heavy: QVQLVQSGSELKKPGASVKVSCKASGYTFTDYSMHWVRQAPGQGLKWMGWINTETGEPTYAQGFTGRFVFSLDTSVSTAYLQISSLKAEDTAVYYCARIPLYYYGSRYWYFDVWGQGTTVTVSSASTKGPSVFPLAPSSRSTSESTAALGCLVKDYFPEPVTVSWNSGALTSGVHTFPAVLQSSGLYSLSSVVTVPSSNFGTQTYTCNVDHKPSNTKVDKTVERKSCVECPPCPAPPAAAPSVFLFPPKPKDTLMISRTPEVTCVVVDVSHEDPEVQFNWYVDGVEVHNAKTKPREEQFNSTFRVVSVLTVVHQDWLNGKEYKCKVSNKGLPAPIEKTISKTKGQPREPQVYTLPPSREEMTKNQVSLTCLVKGFYPSDIAVEWESNGQPENNYKTTPPMLDSDGSFFLYSKLTVDKSRWQQGNVFSCSVMHEALHNHYTQKSLSLSPG
light: EIVMTQSPATLSVSPGERATLSCRASENIYRNLAWYQQKPGQSPRLLIYAATNLADGIPARFSGSGSGTEYTLTISSLQSEDFAVYYCQHFWGTPWTFGQGTKVEIKRTVAAPSVFIFPPSDEQLKSGTASVVCLLNNFYPREAKVQWKVDNALQSGNSQESVTEQDSKDSTYSLSSTLTLSKADYEKHKVYACEVTHQGLSSPVTKSFNRGEC
notes: human Ig kappa; also called L2-4/HA2
As usually defined, the IC50 is the concentration needed to halve the response being measured. What is called Kd is the free concentration of one partner at which half of the binding sites on the other are occupied at equilibrium, for simple one-to-one binding. Read a high Kd as weaker binding. The term koff denotes the rate constant with which the complex falls apart. Broadly, the kon is the rate constant with which the complex forms. The low end stands for slow association, the high end for fast association. Consider B1, for which the “A450 as % of hEphA4-SEAP-His” value in assay [1] was found to be 100%. The “A450 as % of hEphA4-SEAP-His” value in assay [2] worked out at 5.1%. The same molecule came in with an IC50 in assay [3] of 3 nM. In assay [4], this molecule came in with an equilibrium dissociation constant (Kd) of 1.2 nM, a koff of 0.00032 s⁻¹ and an association rate constant (kon) of 280000 M⁻¹ s⁻¹.

B2: humanized antibody No. 132 (antibody, human IgG2)
heavy: QIQLVQSGSELKKPGASVKVSCKASGYTFTDYSMHWVRQAPGQGLKWMGWINTETGEPTYAQGFTGRFVFSLDTSVSTAYLQISSLKAEDTAVYYCARIPLYYYGSRYWYFDVWGQGTTVTVSSASTKGPSVFPLAPSSRSTSESTAALGCLVKDYFPEPVTVSWNSGALTSGVHTFPAVLQSSGLYSLSSVVTVPSSNFGTQTYTCNVDHKPSNTKVDKTVERKSCVECPPCPAPPAAAPSVFLFPPKPKDTLMISRTPEVTCVVVDVSHEDPEVQFNWYVDGVEVHNAKTKPREEQFNSTFRVVSVLTVVHQDWLNGKEYKCKVSNKGLPAPIEKTISKTKGQPREPQVYTLPPSREEMTKNQVSLTCLVKGFYPSDIAVEWESNGQPENNYKTTPPMLDSDGSFFLYSKLTVDKSRWQQGNVFSCSVMHEALHNHYTQKSLSLSPG
light: EIVMTQSPATLSVSPGERATLSCRASENIYRNLAWYQQKPGQSPRLLIYAATNLADGIPARFSGSGSGTEYTLTISSLQSEDFAVYYCQHFWGTPWTFGQGTKVEIKRTVAAPSVFIFPPSDEQLKSGTASVVCLLNNFYPREAKVQWKVDNALQSGNSQESVTEQDSKDSTYSLSSTLTLSKADYEKHKVYACEVTHQGLSSPVTKSFNRGEC
notes: human Ig kappa; also called L2-4/HA4
Regarding B2, the “A450 as % of hEphA4-SEAP-His” value in assay [1] is 100%. In assay [2], the “A450 as % of hEphA4-SEAP-His” value was determined as 4.8%. This molecule showed an IC50 in assay [3] of 3.1 nM. In assay [4], this molecule yielded a Kd of 1.2 nM, a koff of 0.00031 s⁻¹ and a kon of 270000 M⁻¹ s⁻¹.

B3: humanized antibody No. 135 (antibody, human IgG2)
heavy: QVQLVQSGSELKKPGASVKVSCKASGYTFTDYSMHWVRQAPGQGLEWMGWINTETGEPTYADDFKGRFVFSLDTSVSTAYLQISSLKAEDTAVYYCARIPLYYYGSRYWYFDVWGQGTTVTVSSASTKGPSVFPLAPSSRSTSESTAALGCLVKDYFPEPVTVSWNSGALTSGVHTFPAVLQSSGLYSLSSVVTVPSSNFGTQTYTCNVDHKPSNTKVDKTVERKSCVECPPCPAPPAAAPSVFLFPPKPKDTLMISRTPEVTCVVVDVSHEDPEVQFNWYVDGVEVHNAKTKPREEQFNSTFRVVSVLTVVHQDWLNGKEYKCKVSNKGLPAPIEKTISKTKGQPREPQVYTLPPSREEMTKNQVSLTCLVKGFYPSDIAVEWESNGQPENNYKTTPPMLDSDGSFFLYSKLTVDKSRWQQGNVFSCSVMHEALHNHYTQKSLSLSPG
light: EIVMTQSPATLSVSPGERATLSCRASENIYRNLAWYQQKPGQSPRLLIYAATNLADGIPARFSGSGSGTEYTLTISSLQSEDFAVYYCQHFWGTPWTFGQGTKVEIKRTVAAPSVFIFPPSDEQLKSGTASVVCLLNNFYPREAKVQWKVDNALQSGNSQESVTEQDSKDSTYSLSSTLTLSKADYEKHKVYACEVTHQGLSSPVTKSFNRGEC
notes: human Ig kappa; also called L2-4/HK1
B3: in assay [1], the “A450 as % of hEphA4-SEAP-His” value came out at 100%. Besides, the “A450 as % of hEphA4-SEAP-His” value in assay [2] was determined as 5.1%. Further, in assay [3], the IC50 is 2.5 nM. In assay [4], the affinity, expressed as Kd, was 1.3 nM; the off-rate constant (koff) came to 0.0004 s⁻¹; the kon is 320000 M⁻¹ s⁻¹.

B4: humanized antibody No. 137 (antibody, human IgG2)
heavy: QIQLVQSGSELKKPGASVKVSCKASGYTFTDYSMHWVRQAPGQGLKWMGWINTETGEPTYADDFKGRFVFSLDTSVSTAYLQISSLKAEDTAVYYCARIPLYYYGSRYWYFDVWGQGTTVTVSSASTKGPSVFPLAPSSRSTSESTAALGCLVKDYFPEPVTVSWNSGALTSGVHTFPAVLQSSGLYSLSSVVTVPSSNFGTQTYTCNVDHKPSNTKVDKTVERKSCVECPPCPAPPAAAPSVFLFPPKPKDTLMISRTPEVTCVVVDVSHEDPEVQFNWYVDGVEVHNAKTKPREEQFNSTFRVVSVLTVVHQDWLNGKEYKCKVSNKGLPAPIEKTISKTKGQPREPQVYTLPPSREEMTKNQVSLTCLVKGFYPSDIAVEWESNGQPENNYKTTPPMLDSDGSFFLYSKLTVDKSRWQQGNVFSCSVMHEALHNHYTQKSLSLSPG
light: EIVMTQSPATLSVSPGERATLSCRASENIYRNLAWYQQKPGQSPRLLIYAATNLADGIPARFSGSGSGTEYTLTISSLQSEDFAVYYCQHFWGTPWTFGQGTKVEIKRTVAAPSVFIFPPSDEQLKSGTASVVCLLNNFYPREAKVQWKVDNALQSGNSQESVTEQDSKDSTYSLSSTLTLSKADYEKHKVYACEVTHQGLSSPVTKSFNRGEC
notes: human Ig kappa; also called L2-4/HK4
As for B4, the “A450 as % of hEphA4-SEAP-His” value in assay [1] was 100%. Besides, the “A450 as % of hEphA4-SEAP-His” value in assay [2] was 5.8%. The molecule also showed an IC50 in assay [3] of 2.5 nM. In addition, in assay [4], binding was put at a Kd of 1.3 nM, the off-rate (koff) worked out at 0.00039 s⁻¹ and the kon was 290000 M⁻¹ s⁻¹.

B5: humanized antibody No. 136 (antibody, human IgG2)
heavy: QVQLVQSGSELKKPGASVKVSCKASGYTFTDYSMHWVRQAPGQGLKWMGWINTETGEPTYADDFKGRFVFSLDTSVSTAYLQISSLKAEDTAVYYCARIPLYYYGSRYWYFDVWGQGTTVTVSSASTKGPSVFPLAPSSRSTSESTAALGCLVKDYFPEPVTVSWNSGALTSGVHTFPAVLQSSGLYSLSSVVTVPSSNFGTQTYTCNVDHKPSNTKVDKTVERKSCVECPPCPAPPAAAPSVFLFPPKPKDTLMISRTPEVTCVVVDVSHEDPEVQFNWYVDGVEVHNAKTKPREEQFNSTFRVVSVLTVVHQDWLNGKEYKCKVSNKGLPAPIEKTISKTKGQPREPQVYTLPPSREEMTKNQVSLTCLVKGFYPSDIAVEWESNGQPENNYKTTPPMLDSDGSFFLYSKLTVDKSRWQQGNVFSCSVMHEALHNHYTQKSLSLSPG
light: EIVMTQSPATLSVSPGERATLSCRASENIYRNLAWYQQKPGQSPRLLIYAATNLADGIPARFSGSGSGTEYTLTISSLQSEDFAVYYCQHFWGTPWTFGQGTKVEIKRTVAAPSVFIFPPSDEQLKSGTASVVCLLNNFYPREAKVQWKVDNALQSGNSQESVTEQDSKDSTYSLSSTLTLSKADYEKHKVYACEVTHQGLSSPVTKSFNRGEC
notes: human Ig kappa; also called L2-4/HK2
As for B5, the “A450 as % of hEphA4-SEAP-His” value in assay [1] is 100%. In addition, the “A450 as % of hEphA4-SEAP-His” value in assay [2] amounted to 5.2%. In assay [3], this molecule registered an IC50 of 2.5 nM. For the same molecule, in assay [4], the Kd is 1.4 nM, the dissociation rate constant (koff) came to 0.00039 s⁻¹ and the on-rate constant (kon) amounted to 290000 M⁻¹ s⁻¹.

B6: humanized antibody No. 133 (antibody, human IgG2)
heavy: QVQLVQSGSELKKPGASVKVSCKASGYTFTDYSMHWVRQAPGQGLEWMGWINTETGEPTYAQGFTGRFVFSLDTSVSTAYLQISSLKAEDTAVYYCARIPLYYYGSRYWYFDVWGQGTTVTVSSASTKGPSVFPLAPSSRSTSESTAALGCLVKDYFPEPVTVSWNSGALTSGVHTFPAVLQSSGLYSLSSVVTVPSSNFGTQTYTCNVDHKPSNTKVDKTVERKSCVECPPCPAPPAAAPSVFLFPPKPKDTLMISRTPEVTCVVVDVSHEDPEVQFNWYVDGVEVHNAKTKPREEQFNSTFRVVSVLTVVHQDWLNGKEYKCKVSNKGLPAPIEKTISKTKGQPREPQVYTLPPSREEMTKNQVSLTCLVKGFYPSDIAVEWESNGQPENNYKTTPPMLDSDGSFFLYSKLTVDKSRWQQGNVFSCSVMHEALHNHYTQKSLSLSPG
light: EIVMTQSPATLSVSPGERATLSCRASENIYRNLAWYQQKPGQSPRLLIYAATNLADGIPARFSGSGSGTEYTLTISSLQSEDFAVYYCQHFWGTPWTFGQGTKVEIKRTVAAPSVFIFPPSDEQLKSGTASVVCLLNNFYPREAKVQWKVDNALQSGNSQESVTEQDSKDSTYSLSSTLTLSKADYEKHKVYACEVTHQGLSSPVTKSFNRGEC
notes: human Ig kappa; also called L2-4/HA1
For the molecule B6, the “A450 as % of hEphA4-SEAP-His” value in assay [1] stood at 100%. Besides, the “A450 as % of hEphA4-SEAP-His” value in assay [2] worked out at 4.6%. This molecule also returned an IC50 in assay [3] of 3 nM. In assay [4], this molecule showed an equilibrium dissociation constant (Kd) of 1.1 nM, a koff of 0.00032 s⁻¹ and a kon of 300000 M⁻¹ s⁻¹.
